Experiments:
LEDGF/p75 wild type [1] = molecular target: T1, LEDGF/p75 wild type (human, UniProt O75475 1-530); assay: SPR
MutL3 = MutL3 (human, UniProt O75475 1-530, R180A;G181A;R182A;R194A;G195A;R196A); assay: SPR
MutL4 = MutL4 (human, UniProt O75475 1-530, R180A;G181A;R182A); assay: SPR
MutL5 = MutL5 (human, UniProt O75475 1-530, R194A;G195A;R196A); assay: SPR
[2] = molecular target: LEDGF/p75 347-530 (IBD fragment) (human, UniProt O75475 347-530); assay: EMSA
[3] = molecular target: LEDGF/p75 1-116 (PWWP domain) (human, UniProt O75475 1-116); assay: EMSA
Chain of LEDGF/p75 1-116 (PWWP domain) (O75475 1-116): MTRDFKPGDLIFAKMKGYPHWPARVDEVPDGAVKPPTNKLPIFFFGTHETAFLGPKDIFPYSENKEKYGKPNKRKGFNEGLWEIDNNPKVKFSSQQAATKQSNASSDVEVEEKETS

LEDGF/p75 wild type [4] = molecular target: T1, LEDGF/p75 wild type; assay: EMSA
LEDGF/p75 93-226 = LEDGF/p75 93-226 (human, UniProt O75475 93-226); assay: EMSA
Chain of LEDGF/p75 93-226 (O75475 93-226): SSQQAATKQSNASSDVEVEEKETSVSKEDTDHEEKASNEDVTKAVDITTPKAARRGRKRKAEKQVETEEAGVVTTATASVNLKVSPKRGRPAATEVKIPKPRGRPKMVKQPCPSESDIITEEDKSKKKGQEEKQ

LEDGF/p75 wild type [5] = molecular target: T1, LEDGF/p75 wild type; assay: EMSA; remark: listed apart in the source
LEDGF/p75 wild type [6] = molecular target: T1, LEDGF/p75 wild type; assay: SPR; remark: listed apart in the source

T1 sequence (O75475 whole entry): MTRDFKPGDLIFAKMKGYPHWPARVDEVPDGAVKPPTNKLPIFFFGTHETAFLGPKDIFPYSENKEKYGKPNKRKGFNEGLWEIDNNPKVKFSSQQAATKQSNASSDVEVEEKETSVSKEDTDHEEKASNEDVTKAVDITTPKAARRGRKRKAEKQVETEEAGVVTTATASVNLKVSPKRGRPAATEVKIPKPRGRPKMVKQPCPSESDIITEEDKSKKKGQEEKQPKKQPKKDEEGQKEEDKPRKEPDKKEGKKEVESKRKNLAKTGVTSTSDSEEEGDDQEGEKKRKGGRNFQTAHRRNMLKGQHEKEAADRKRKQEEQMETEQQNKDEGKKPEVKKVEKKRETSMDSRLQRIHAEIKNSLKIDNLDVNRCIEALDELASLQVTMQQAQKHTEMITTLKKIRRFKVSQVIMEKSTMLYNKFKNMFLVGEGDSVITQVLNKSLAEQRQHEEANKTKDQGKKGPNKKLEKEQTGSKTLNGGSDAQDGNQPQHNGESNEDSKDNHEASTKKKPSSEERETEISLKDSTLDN
Chain of LEDGF/p75 347-530 (IBD fragment) (O75475 347-530): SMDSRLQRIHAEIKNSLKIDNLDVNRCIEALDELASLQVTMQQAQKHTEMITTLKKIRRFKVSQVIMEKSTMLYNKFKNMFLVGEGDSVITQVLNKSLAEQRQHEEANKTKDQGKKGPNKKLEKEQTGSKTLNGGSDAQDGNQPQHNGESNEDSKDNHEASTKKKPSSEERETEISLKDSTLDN
Chain of MutL3 (O75475 whole entry R180A/G181A/R182A/R194A/G195A/R196A): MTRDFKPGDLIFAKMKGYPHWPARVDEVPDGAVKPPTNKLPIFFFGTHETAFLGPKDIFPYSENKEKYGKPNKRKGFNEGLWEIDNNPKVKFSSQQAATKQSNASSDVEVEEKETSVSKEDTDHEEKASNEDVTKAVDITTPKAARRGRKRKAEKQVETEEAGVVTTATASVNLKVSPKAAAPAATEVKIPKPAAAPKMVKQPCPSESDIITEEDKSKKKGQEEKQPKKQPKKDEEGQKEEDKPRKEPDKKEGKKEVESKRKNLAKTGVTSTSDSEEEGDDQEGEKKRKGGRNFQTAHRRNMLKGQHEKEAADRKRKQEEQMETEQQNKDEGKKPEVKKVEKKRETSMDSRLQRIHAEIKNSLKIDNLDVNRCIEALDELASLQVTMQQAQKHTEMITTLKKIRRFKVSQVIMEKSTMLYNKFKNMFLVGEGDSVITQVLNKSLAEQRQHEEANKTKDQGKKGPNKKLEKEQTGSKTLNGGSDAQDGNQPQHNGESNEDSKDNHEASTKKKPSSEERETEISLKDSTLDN
Chain of MutL4 (O75475 whole entry R180A/G181A/R182A): as the sequence (O75475 whole entry R180A/G181A/R182A/R194A/G195A/R196A) above, with A194R, A195G, A196R counted along it
Chain of MutL5 (O75475 whole entry R194A/G195A/R196A, the tested form may be a part): as the sequence (O75475 whole entry R180A/G181A/R182A/R194A/G195A/R196A) above, with A180R, A181G, A182R counted along it

B1: Mut1 SPR duplex (AE2042/AE2000) (dsDNA)
DNA 1: GATTTAACTAAATAAATTTTAAAA
DNA 2: TTTTAAAATTTATTTAGTTAA
LEDGF/p75 wild type [1]
  binding signal: 100 % of WT stably bound
MutL3
  binding signal: ~7 % of WT stably bound
MutL4
  binding signal: ~45 % of WT stably bound
MutL5
  binding signal: ~13 % of WT stably bound

B2: Mut1 EMSA duplex (AE1199/AE2000) (dsDNA)
DNA 1: TTAACTAAATAAATTTTAAAA
DNA 2: TTTTAAAATTTATTTAGTTAA
[2]
  binding result: no binding
[3]
  binding result: no binding
LEDGF/p75 wild type [4]
  binding result: binds

B3: Mut2 EMSA duplex (AE2001/AE2002) (dsDNA)
DNA 1: TTAACGAGATAATTTTACAGA
DNA 2: TCTGTAAAATTATCTCGTTAA
LEDGF/p75 93-226
  binding result: binds
LEDGF/p75 wild type [5]
  binding result: binds

B4: HSE EMSA duplex (AE1197/AE1198) (dsDNA)
DNA 1: TTAACGAGAGAAGGTTCCAGA
DNA 2: TCTGGAACCTTCTCTCGTTAA
LEDGF/p75 93-226
  binding result: binds
LEDGF/p75 wild type [5]
  binding result: binds

B5: HSE SPR duplex (AE2019/AE1198) (dsDNA)
DNA 1: GATTTAACGAGAGAAGGTTCCAGA
DNA 2: TCTGGAACCTTCTCTCGTTAA
LEDGF/p75 wild type [6]
  binding result: binds

B6: Mut2 SPR duplex (AE2043/AE2002) (dsDNA)
DNA 1: GATTTAACGAGATAATTTTACAGA
DNA 2: TCTGTAAAATTATCTCGTTAA
LEDGF/p75 wild type [6]
  binding result: binds
